In the supplement of paper PMC9112550, “Optimization of the antimicrobial peptide Bac7 by deep mutational scanning” (BMC Biology, 2022):

Test system: Escherichia coli TOP10
Experiment: shrunken log2 fold change of peptide-encoding DNA abundance (4.5 h post-induction vs induction); higher = less antimicrobial activity (less host growth inhibition)
Conditions: time post-induction: 4.5 h; library: site-saturation at positions 5, 18, 19, 20
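Further: peptides expressed intracellularly from a pBAD plasmid library in pooled LB shake-flask culture, induced with 0.3% L-arabinose, DNA abundance read by NGS, three biological replicates, DESeq2 with apeglm shrinkage.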

| Sequence | shrunken log2 fold change |
| --- | --- |
| RRIRMRPPRLPRPRPRPFYKPRP | -0.266 |
| RRIRSRPPRLPRPRPRPQGLPRP | 0.0641 |
| RRIRVRPPRLPRPRPRPFWSPRP | 0.0887 |
| RRIRMRPPRLPRPRPRPIYNPRP | -0.347 |
| RRIRLRPPRLPRPRPRPVRWPRP | 0.928 |
| RRIRERPPRLPRPRPRPINAPRP | -0.129 |
| RRIRDRPPRLPRPRPRPSWMPRP | -0.166 |
| RRIRVRPPRLPRPRPRPRSFPRP | 0.029 |
| RRIRVRPPRLPRPRPRPIIKPRP | -0.351 |
| RRIRARPPRLPRPRPRPYEVPRP | -0.0785 |
| RRIRERPPRLPRPRPRPQSAPRP | -0.227 |
| RRIRARPPRLPRPRPRPSRGPRP | 0.497 |
| RRIRHRPPRLPRPRPRPMYKPRP | -0.138 |
| RRIRMRPPRLPRPRPRPMHRPRP | -0.156 |
| RRIRCRPPRLPRPRPRPLDMPRP | -0.549 |
| RRIRPRPPRLPRPRPRPPLAPRP | 0.513 |
| RRIRDRPPRLPRPRPRPDVCPRP | 0.833 |
| RRIRCRPPRLPRPRPRPDCQPRP | -0.0895 |
| RRIRMRPPRLPRPRPRPRPMPRP | 0.935 |
| RRIRHRPPRLPRPRPRPHQWPRP | -0.0218 |
| RRIRERPPRLPRPRPRPHVTPRP | -0.228 |
| RRIRNRPPRLPRPRPRPATEPRP | 0.00868 |
| RRIRFRPPRLPRPRPRPPTKPRP | 0.709 |
| RRIRIRPPRLPRPRPRPRDIPRP | -0.203 |
| RRIRERPPRLPRPRPRPKYPPRP | -0.00672 |

| Sequence | shrunken log2 fold change |
| --- | --- |
| RRIRERPPRLPRPRPRPMWCPRP | 0.0762 |
| RRIRVRPPRLPRPRPRPMTGPRP | -0.0967 |
| RRIRKRPPRLPRPRPRPQVFPRP | 0.00956 |
| RRIRSRPPRLPRPRPRPDVAPRP | 0.407 |
| RRIRMRPPRLPRPRPRPFPPPRP | 0.103 |
| RRIRNRPPRLPRPRPRPCPIPRP | -0.223 |
| RRIRHRPPRLPRPRPRPIGLPRP | 0.0101 |
| RRIRPRPPRLPRPRPRPATGPRP | 0.0771 |
| RRIRHRPPRLPRPRPRPGSTPRP | -0.681 |
| RRIRARPPRLPRPRPRPDNAPRP | 0.311 |
| RRIRSRPPRLPRPRPRPMTYPRP | 0.132 |
| RRIRFRPPRLPRPRPRPQINPRP | -0.239 |
| RRIRRRPPRLPRPRPRPACHPRP | 0.306 |
| RRIRFRPPRLPRPRPRPILSPRP | -0.101 |
| RRIRNRPPRLPRPRPRPQGDPRP | 4.25 |
| RRIRFRPPRLPRPRPRPGEWPRP | -0.0225 |
| RRIRCRPPRLPRPRPRPHYHPRP | -0.755 |
| RRIRTRPPRLPRPRPRPADPPRP | 0.0203 |
| RRIRQRPPRLPRPRPRPVHQPRP | -0.104 |
| RRIRARPPRLPRPRPRPHRDPRP | 0.0774 |
| RRIRTRPPRLPRPRPRPIYFPRP | -0.468 |
| RRIRFRPPRLPRPRPRPYSCPRP | -0.388 |
| RRIRPRPPRLPRPRPRPWCWPRP | 0.233 |
| RRIRWRPPRLPRPRPRPCGIPRP | 0.0389 |
| RRIRMRPPRLPRPRPRPGLRPRP | 1.15 |

| Sequence | shrunken log2 fold change |
| --- | --- |
| RRIRKRPPRLPRPRPRPHMRPRP | 0.0568 |
| RRIRKRPPRLPRPRPRPWKWPRP | -0.0168 |
| RRIRSRPPRLPRPRPRPACVPRP | 0.224 |
| RRIRSRPPRLPRPRPRPIDNPRP | -0.163 |
| RRIRKRPPRLPRPRPRPVAAPRP | 0.721 |
| RRIRPRPPRLPRPRPRPINSPRP | -0.236 |
| RRIRWRPPRLPRPRPRPVHCPRP | -0.162 |
| RRIRQRPPRLPRPRPRPEFKPRP | -0.0763 |
| RRIRRRPPRLPRPRPRPSWGPRP | -0.0778 |
| RRIRNRPPRLPRPRPRPKFFPRP | -0.298 |
| RRIRLRPPRLPRPRPRPQPIPRP | 0.0892 |
| RRIRYRPPRLPRPRPRPSAVPRP | -0.175 |
| RRIRRRPPRLPRPRPRPGSQPRP | -0.0144 |
| RRIRKRPPRLPRPRPRPGFDPRP | 0.98 |
| RRIRCRPPRLPRPRPRPHVTPRP | -0.64 |
| RRIRARPPRLPRPRPRPPSQPRP | 0.669 |
| RRIRFRPPRLPRPRPRPSMTPRP | -0.227 |
| RRIRQRPPRLPRPRPRPTSHPRP | 0.0206 |
| RRIRYRPPRLPRPRPRPAMTPRP | 0.165 |
| RRIRYRPPRLPRPRPRPMAKPRP | -0.0343 |
| RRIRMRPPRLPRPRPRPCFDPRP | 0.0386 |
| RRIRTRPPRLPRPRPRPDAYPRP | -0.134 |
| RRIRTRPPRLPRPRPRPSQCPRP | -0.239 |
| RRIRMRPPRLPRPRPRPWVDPRP | -0.034 |
| RRIRIRPPRLPRPRPRPNRDPRP | -0.0377 |

| Sequence | shrunken log2 fold change |
| --- | --- |
| RRIRNRPPRLPRPRPRPWDTPRP | -0.0124 |
| RRIRFRPPRLPRPRPRPGRLPRP | 0.262 |
| RRIRWRPPRLPRPRPRPTPLPRP | 0.557 |
| RRIRHRPPRLPRPRPRPNPQPRP | -0.00216 |
| RRIRARPPRLPRPRPRPCCMPRP | -0.0671 |
| RRIRVRPPRLPRPRPRPEQRPRP | 0.0562 |
| RRIRYRPPRLPRPRPRPLFMPRP | -1.24 |
| RRIRERPPRLPRPRPRPHDTPRP | -0.332 |
| RRIRLRPPRLPRPRPRPTPVPRP | 0.559 |
| RRIRLRPPRLPRPRPRPTIFPRP | 0.205 |
| RRIRPRPPRLPRPRPRPDASPRP | 0.37 |
| RRIRNRPPRLPRPRPRPFGQPRP | -0.282 |
| RRIRRRPPRLPRPRPRPCTHPRP | 0.176 |
| RRIRHRPPRLPRPRPRPNTYPRP | -0.742 |
| RRIRTRPPRLPRPRPRPEGQPRP | 0.0344 |
| RRIRLRPPRLPRPRPRPFISPRP | -0.182 |
| RRIRARPPRLPRPRPRPKFMPRP | 0.0584 |
| RRIRYRPPRLPRPRPRPGTEPRP | -0.521 |
| RRIRERPPRLPRPRPRPGCDPRP | 0.0125 |
| RRIRIRPPRLPRPRPRPEPGPRP | 0.253 |
| RRIRGRPPRLPRPRPRPNVMPRP | 0.114 |
| RRIRYRPPRLPRPRPRPMFHPRP | -1.24 |
| RRIRSRPPRLPRPRPRPKDWPRP | 0.21 |
| RRIRPRPPRLPRPRPRPHKLPRP | -0.109 |
| RRIRFRPPRLPRPRPRPEFFPRP | -0.153 |

| Sequence | shrunken log2 fold change |
| --- | --- |
| RRIRQRPPRLPRPRPRPCCVPRP | 0.115 |
| RRIRMRPPRLPRPRPRPTLQPRP | 0.13 |
| RRIRHRPPRLPRPRPRPSRNPRP | -0.134 |
| RRIRSRPPRLPRPRPRPRNSPRP | -0.264 |
| RRIRDRPPRLPRPRPRPVYNPRP | -0.00379 |
| RRIRVRPPRLPRPRPRPQITPRP | -0.229 |
| RRIRHRPPRLPRPRPRPVVNPRP | 0.00319 |
| RRIRYRPPRLPRPRPRPMMEPRP | -0.141 |
| RRIRKRPPRLPRPRPRPGEQPRP | -0.0435 |
| RRIRGRPPRLPRPRPRPHCWPRP | 0.69 |
| RRIRFRPPRLPRPRPRPKLLPRP | 0.0539 |
| RRIRIRPPRLPRPRPRPQFYPRP | -0.945 |
| RRIRKRPPRLPRPRPRPILWPRP | 0.149 |
| RRIRPRPPRLPRPRPRPYKGPRP | -0.437 |
| RRIRWRPPRLPRPRPRPQILPRP | -0.164 |
| RRIRRRPPRLPRPRPRPQACPRP | 0.0222 |
| RRIRGRPPRLPRPRPRPMCIPRP | 0.166 |
| RRIRVRPPRLPRPRPRPQGFPRP | -0.0921 |
| RRIRTRPPRLPRPRPRPPILPRP | 0.112 |
| RRIRSRPPRLPRPRPRPHHTPRP | -0.625 |
| RRIRERPPRLPRPRPRPLPSPRP | -0.0852 |
| RRIRGRPPRLPRPRPRPDPQPRP | 0.694 |
| RRIRLRPPRLPRPRPRPNCHPRP | -0.156 |
| RRIRCRPPRLPRPRPRPCVGPRP | -0.0691 |
| RRIRWRPPRLPRPRPRPGTVPRP | -0.148 |
